Here are results for five molecules from paper PMC10127515, “Biocatalytic Synthesis of Homochiral 2-Hydroxy-4-butyrolactone Derivatives by Tandem Aldol Addition and Carbonyl Reduction” (ACS Catalysis, 2023).

The target of data set [1] is T1, KPREcoli (ketopantoate reductase from E. coli) (Escherichia coli, UniProt P0A9J4).
T1 construct: gene panE; recombinant wild type; tags and purification only in the supplement
T1 sequence (P0A9J4 1-303): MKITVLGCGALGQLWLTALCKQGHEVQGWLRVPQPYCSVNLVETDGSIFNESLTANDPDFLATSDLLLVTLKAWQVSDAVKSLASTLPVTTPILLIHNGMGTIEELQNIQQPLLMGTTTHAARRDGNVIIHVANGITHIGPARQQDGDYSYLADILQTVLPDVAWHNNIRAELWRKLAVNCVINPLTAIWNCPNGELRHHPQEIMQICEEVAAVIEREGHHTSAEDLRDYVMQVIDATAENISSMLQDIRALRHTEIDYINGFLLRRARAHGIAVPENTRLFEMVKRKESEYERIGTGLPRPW
In words: NADPH oxidation at […] nm, continuous. It is filed as biochemical. The note with it: NADPH 0.16 mM; 50 mM Tris-HCl pH 8.0; 30 °C; substrate inhibition.

Substrate in data set [2]: CC[C@H](CO)C(=O)C(=O)O
Briefly: purified protein. The format is biochemical, Escherichia coli. To be noted: NADPH 0.16 mM, 50 mM Tris-HCl pH 8.0, 30 °C.

Substrate in data set [3]: O=C(O)C(=O)C1(CO)CCCC1
In words: purified protein. To be noted: NADPH 0.16 mM, 50 mM Tris-HCl pH 8.0, 30 °C. The format is biochemical, Escherichia coli.

Substrate in data set [4]: C[C@H](CO)C(=O)C(=O)O
Briefly: purified protein. To be noted: NADPH 0.16 mM, 50 mM Tris-HCl pH 8.0, 30 °C. The format is biochemical, Escherichia coli.

Substrate in data set [5]: COCC[C@H](CO)C(=O)C(=O)O
In words: purified protein. To be noted: NADPH 0.16 mM, 50 mM Tris-HCl pH 8.0, 30 °C. The format is biochemical, Escherichia coli.

Substrate in data set [6]: C[C@@H](CO)C(=O)C(=O)O
Briefly: purified protein. It is filed as biochemical, Escherichia coli. To be noted: NADPH 0.16 mM, 50 mM Tris-HCl pH 8.0, 30 °C.

Substrate in data set [7]: CC(C)[C@@H](CO)C(=O)C(=O)O
In words: purified protein. It is filed as biochemical, Escherichia coli. To be noted: NADPH 0.16 mM, 50 mM Tris-HCl pH 8.0, 30 °C.

Substrate in data set [8]: CC(C)(CO)C(=O)C(=O)O
Briefly: purified protein. The format is biochemical, Escherichia coli. The note with it: NADPH 0.16 mM, 50 mM Tris-HCl pH 8.0, 30 °C.

Substrate in data set [9]: C=CC[C@H](CO)C(=O)C(=O)O
Briefly: purified protein. The format is biochemical, Escherichia coli. To be noted: NADPH 0.16 mM, 50 mM Tris-HCl pH 8.0, 30 °C.

Substrate in data set [10]: CC[C@@H](CO)C(=O)C(=O)O
Briefly: purified protein. It is filed as biochemical, Escherichia coli. To be noted: NADPH 0.16 mM, 50 mM Tris-HCl pH 8.0, 30 °C.

Substrate in data set [11]: O=C(O)C(=O)C1(CO)CCC1
In words: purified protein. It is filed as biochemical, Escherichia coli. The note with it: NADPH 0.16 mM, 50 mM Tris-HCl pH 8.0, 30 °C.

Substrate in data set [12]: O=C(O)C(=O)CCO
Briefly: purified protein. The format is biochemical, Escherichia coli. The note with it: NADPH 0.16 mM, 50 mM Tris-HCl pH 8.0, 30 °C.

Substrate in data set [13]: C=CC[C@@H](CO)C(=O)C(=O)O
Briefly: purified protein. The format is biochemical, Escherichia coli. To be noted: NADPH 0.16 mM, 50 mM Tris-HCl pH 8.0, 30 °C.

Substrate in data set [14]: C[C@H](CO)C(=O)C(=O)O
Briefly: purified protein. The format is biochemical, Pseudomonas syringae group genomosp. 3. The note with it: NADPH 0.16 mM, 50 mM Tris-HCl pH 8.0, 30 °C.

Substrate in data set [15]: O=C(O)C(=O)C[C@@H](O)CO
Briefly: purified protein. The format is biochemical, Pseudomonas syringae group genomosp. 3. To be noted: NADPH 0.16 mM, 50 mM Tris-HCl pH 8.0, 30 °C.

Substrate in data set [16]: C[C@@H](CO)C(=O)C(=O)O
Briefly: purified protein. It is filed as biochemical, Pseudomonas syringae group genomosp. 3. The note with it: NADPH 0.16 mM, 50 mM Tris-HCl pH 8.0, 30 °C.

Substrate in data set [17]: CC[C@@H](CO)C(=O)C(=O)O
Briefly: purified protein. It is filed as biochemical, Pseudomonas syringae group genomosp. 3. To be noted: NADPH 0.16 mM, 50 mM Tris-HCl pH 8.0, 30 °C.

Substrate in data set [18]: O=C(O)C(=O)CCO
Briefly: purified protein. The format is biochemical, Pseudomonas syringae group genomosp. 3. The note with it: NADPH 0.16 mM, 50 mM Tris-HCl pH 8.0, 30 °C.

As to `CC(C)(CO)C(=O)C(=O)O` [3j, ketopantoate], the “KPREcoli ^b / ksi^app” value in data set [1] was found to be 3.9 ± 1.3 mM.

Take `O=C(O)C(=O)C1(CO)CCCC1` [3l]: the “KPREcoli ^b / ksi^app” value in data set [1] came to 28 ± 4 mM.

As for `O=C(O)C(=O)C1(CO)CCC1` [3k], the “KPREcoli ^b / ksi^app” value in data set [1] was found to be 6.6 ± 1.5 mM.

B1: KPREcoli (ketopantoate reductase from E. coli) (Escherichia coli K-12) (protein)
chain: T1 sequence (P0A9J4 1-303)
notes: recombinant wild type; tags and purification only in the supplement
For the molecule B1, the Km amounted to 7 ± 1 mM in data set [2]; 0.2 ± 0.1 mM in data set [3]; 4.8 ± 0.4 mM in data set [4]; 18 ± 3 mM in data set [5]; 12.9 ± 1.4 mM in [6]; 13 ± 2 mM in data set [7]. Moreover, the Km is 0.4 ± 0.2 mM in data set [8]; 9.5 ± 1.5 mM in data set [9]; 3.0 ± 0.5 mM in data set [10]; 1.5 ± 0.5 mM in data set [11]; 4.9 ± 1.2 mM in [12]; 9.5 ± 1.7 mM in data set [13]. Moreover, the kcat in data set [2] came to 700 ± 34 min⁻¹; in data set [3], 1166 ± 67 min⁻¹; in data set [4], 5350 ± 138 min⁻¹; in data set [5], 5.9 ± 0.5 min⁻¹; in [6], 348 ± 15 min⁻¹; in data set [7], 1021 ± 69 min⁻¹. Besides, the kcat in data set [8] worked out at 4457 ± 813 min⁻¹; in data set [9], 90 ± 5 min⁻¹; in data set [10] it was 926 ± 37 min⁻¹; in data set [11], 6791 ± 1022 min⁻¹; in data set [12], 7.1 ± 0.5 min⁻¹; in data set [13] it was 89 ± 6 min⁻¹. Also, the catalytic efficiency (kcat/Km) was 1770 M⁻¹ s⁻¹ in data set [2]; 92800 M⁻¹ s⁻¹ in [3]; 18500 M⁻¹ s⁻¹ in data set [4]; 5.67 M⁻¹ s⁻¹ in data set [5]; 450 M⁻¹ s⁻¹ in data set [6]; 1280 M⁻¹ s⁻¹ in data set [7]. The kcat/Km came out at 179000 ± 76500 M⁻¹ s⁻¹ in data set [8]; 157 M⁻¹ s⁻¹ in data set [9]; 5230 M⁻¹ s⁻¹ in data set [10]; 73800 M⁻¹ s⁻¹ in [11]; 25 M⁻¹ s⁻¹ in data set [12]; 157 M⁻¹ s⁻¹ in [13].

B2: DpkAPsyrin (Δ1-piperidine-2-carboxylate/Δ1-pyrroline-2-carboxylate reductase) (Pseudomonas syringae pv. tomato) (protein)
chain: MSASHADQPTQTVSYPQLIDLLRRIFVVHGTSPEVADVLAENCASAQRDGSHSHGIFRIPGYLSSLASGWVDGKAVPVVEDVGAAFVRVDACNGFAQPALAAARSLLIDKARSAGVAILAIRGSHHFAALWPDVEPFAEQGLVALSMVNSMTCVVPHGARQPLFGTNPIAFGAPRAGGEPIVFDLATSAIAHGDVQIAAREGRLLPAGMGVDRDGLPTQEPRAILDGGALLPFGGHKGSALSMMVELLAAGLTGGNFSFEFDWSKHPGAQTPWTGQLLIVIDPDKGAGQHFAQRSEELVRQLHGVGQERLPGDRRYLERARSMAHGIVIAQADLERLQELAGH
notes: as for B1
B2: the Km in data set [14] turned out to be 7.5 ± 1.9 mM; in data set [15], 11 ± 1 mM; in data set [16], 19 ± 4 mM; in data set [17] it was 14 ± 2 mM; in data set [18], 33 ± 7 mM. Besides, the kcat in data set [14] was 0.0024 ± 0.0002 min⁻¹; in [15] it was 3.00 ± 0.02 min⁻¹; in [16], 1.1 ± 0.1 min⁻¹; in data set [17], 0.23 ± 0.01 min⁻¹; in [18] it was 1.7 ± 0.2 min⁻¹. The kcat/Km is 4.67 M⁻¹ s⁻¹ in [15], 0.967 M⁻¹ s⁻¹ in data set [16], 0.267 M⁻¹ s⁻¹ in data set [17] and 0.867 M⁻¹ s⁻¹ in [18].

By Km is commonly meant the substrate concentration at which the rate is half of its maximum. Broadly, the kcat is the number of substrate molecules converted per active site and unit of time at saturation. One may read the kcat/Km as the second-order rate constant that governs catalysis at low substrate concentration.
